Source: the nanobody polyreactivity screen of Harvey et al. (2022)

Experiment: yeast display, Sf9 membrane polyspecificity reagent, FACS + sequencing; frameworks hold sequencing errors
Procedure, shortened: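 After 36–48 hours of galactose induction, yeast (Saccharomyces cerevisiae BJ5465) displaying a synthetic nanobody library were stained at 4 °C for 1 hour with 10% biotinylated, detergent-solubilized Sf9 membrane reagent. Streptavidin microbeads enriched the stained cells before FACS sorting into low and high (top ~1%) gates on anti-HA and streptavidin fluorescence. Each clone's polyreactivity label reflects its gate of origin.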

| Sequence | polyreactivity (PSR sort gate) |
| --- | --- |
| QVQLVESGGGLVQAGGSLRLSCAASGTTFLINAMGWYRQAPGKERELVATISSGGSTYYADSVKGRFTISRDNAKNNVYLQMNSLKPEDTAVYFCAADPDRTAYDYWGQGTQVTVSS | low polyreactivity |
| QVKLVESGGGLVQAGGSLRLSCAASGFIFKANAMGWYRQAPGKETELVAAITWRDGNTNYADSVKGRFTISRDNAKNTVYLQMNSLKPEDTAGYYCAVRLLADDGYPAVVGDDYWGQGTQVTVSS | low polyreactivity |
| QVQLVESGGGLVQAGASLRLSCAASGSTFLRNAMGWYRQAPGKKGSWVATISYDGDSTYYADSVKGRFTISRDNTKNTVYLQMNSLKPEDPAVYYCAASYSLTFWDKDDYWGQGTQVSVSS | low polyreactivity |
| QVQLVESGGGLVQAGGSLRLSCAASGSIFTTYTMGWYRQAPGKERELVAAITAGGGTTYYADSVKGRFTISRDNAKNTVYLQMNSLKPEDTAVYYCAAANSFYYIATGEYDYWGQGTQVTVSS | high polyreactivity |
| QVQLVESGGGLVQAGGSLRLSCAASGSTFSPNAMGWYRQAPGKERELVAAITYRGANTYYADSVKGRFTISRDNEKNTVYLQMNSLKPEDTAVYYCAAEYAYHHVGFGYWGQGTQVTVSS | low polyreactivity |
| QVQLVESGGGLVQAGGSLRLSCAASGIIFPLYMGWDRQAPGTERVLVAAINSIGGRTYYADSVKGRFTISRDNAKNTVYLQMNSLKPEDTAVYYCNAVPVGWRYRQYDYWGQGTQVTVSS | high polyreactivity |
| QVQLVESGGGLVQAGGSLRLSCPASGSTIDPNARGWYRQAPGNERELVAAISYTGGRTYYADSVKGRFTISRDNAKNTVYLQMNSLKPEDTAVYYCAVLVVGATTQDEPYFSGVEHDYWGQGTQVTVSS | low polyreactivity |
| QVQLVESGGGLVQAGGSLRLSCAASGRTSRYALGWYRQAPGKERELVAAISRNGGTTSYADSVKGRFTISRDNAKNTVYLQMNSLKPEDTAVYYCNAYSAFVPPTRGYYWGQGTQVTVSS | high polyreactivity |
| QVQLVESGGGLVQAGGSLRLSCAASGRTFFFYAMGWYRQAPGKERELVASITWSGGTRTYYADSVKGRFTISRDNAKNTVYLQMNSLKPEDTAFYYCAATDSSYWFNRYGGKYYYWGQGTQVTVSS | high polyreactivity |
| QVQLVESGGGLVQAGGSLRLSCAASGNTFRWYAMGWYRQAPGKEREFVADITVRGGSTYYADSVKGRFTISRDNAKNTVYLQMNSLKPEDTAVYYCAVDFRRYPGFDYWGQGTQVTVSS | low polyreactivity |
| QVQLVESGGGLVQAGGSLRLSCAASGFIFGVNAMGWYRQAPGKERELVAAITSTGGRTYYADSVKGRFTISRDNAKNTVYLQMNSLKPEDTAVYYCNKRYRDQYGYDYWGQGTQVTVSS | high polyreactivity |
| QVQLVESGGGLVQAGGSLRLSCAASGSIFRGYDMGWYRQPPGKERELVAAISRSGGITYYADSVKGRFTISRDNAKNTVYLNMNSLKPEVTAVYYCAASRAGGYYGKGYSWGQGTQVTVSS | high polyreactivity |
| QVQLVESGGGLVQAGGSLRLSCAASGRTFQYYAMGWYRQAPGKERELVAAITWSGTSTYYADSVKGRFTISRDNAKNTVYLQMNSLKPEDTAVYYCNKYSPYITYDYDYWGQGTQVTVSS | high polyreactivity |
| QVQLVESWGGLVQAGGSLRLSCAASGINFWVYAMGWYRQAPGQERELVAAISRRGGSTSYADSVKGRFTISRDNAKNTVYLQMKSLKPEDTAVYFCAATTYTHPYGYWGQGTQVTVSS | high polyreactivity |
| QVQLVESGGGLVQAGGSLRLSCAASGSTFYASVMGWYRQAPGKERELVAGITWYGGSTYYADSVKGRFTISRDNAKNTVYLQMNSLKPEDTAVYYCAADYYNTYGYDYCGQGTQVTVSS | low polyreactivity |
| QVQLVESGGGLVQAGGSLRFSCAASGSTFPYYAMGLYRQAPGKERELVATITKRGGRTYYADSVKGRFTISRDNAKNTVYLQMISLKPEDTAVYYCAARYRFAVTYEYWGQGTQVTVSS | high polyreactivity |
| QVQLVESGGGLVQAGGSLRLSSAASGFTYYFYAMGWYRQAPGKERELVAGISTSGTSTYYADSVKGRFTISRDNAKNTVYFQMNRLKPEDTAVSYCAKRGDAIVPTSSKGNYWGQGTQVTVSS | low polyreactivity |
| QVQLVESGGGLVQAGGSLRLSCAASGYIIFGNAMGWYRQAPGKERELVAAIRWRGTSTYYADSVKGRFTISRDNAKNTVYLQMNSLKPEDTAVYYCAADVVRSNFYGTFLYDYDYWGQGTQVTVSS | low polyreactivity |
| QVQLVESGGGLVQAGGSLRLSCAASGGIFYRYAMGWYRQAPGKEREFVASIDVSGGSTHYADSVKGRFTISRDNAKNTVDLQMNSLKPEDTAVHYCAARVYWRSSRYYYWGHGTQVTVSS | high polyreactivity |
| QVQLVESGGGLVQAGGSLRLSCAASGFTFTMNAMGWYRQAPGKERELVAGISSGGSTNYADSVKGRFTLSRDNEKNTVYLQMNSLKPEDTAVYYCAADRGYVWRYDYWGQGTQVTVSS | low polyreactivity |

| Sequence | polyreactivity (PSR sort gate) |
| --- | --- |
| QVQLVESGGGLVQAGGSLRLSCAASGSIRSYAMGWYRQAPGKERELVAAITRSGGSTYYADSVKGRFTISRDNAKNTVYLQMNSLKPEDTAVYYCAAEVRGKSRSTRVSYRYDYWGQGTQVTVSS | high polyreactivity |
| QVQLVESGGGLVQAGGSLRLSCAASGRTFDDNAMGWYRQAPGKERELVAAINFTGGSTYYADSVKGRFTISRDNAQNTVSLQMNSLKPEDTAVYYCAVRPGYYCGYWPRFGYWGQGSQVTVSS | low polyreactivity |
| QVQLVESGGGLVQAGGSLRLSCAASGRTFWTNAMGWYRQAPGKERELVAAISYRAGSTYYADSVKGRFTISRDNAKNTVYLQMNSLKPEDTAVYYCATRAVYYYAGFDYWGQGTQVTVSS | high polyreactivity |
| QVQLVESGGGLVQAGGSLRLSCAASGSTFVKNTMGWYRQAPGKERELVAAIRSSGGSTYYADSVKGRFTISRDNAKNTVYLQMNSLKPEDTAVYYCAAPRVSVHGGGYWGQGTQVTVSS | high polyreactivity |
| QVQLVESGGGLVQAGGSLSLSCAAYGGIFPENAMGWYRLAPGKERELVAAMSRSGSSTYYADSVKGRFTISRDNAKNTVFLQMNSLKPEVTAVSYCAARGVKWGQGSQVTVSS | high polyreactivity |
| QVQLVESGGGLVQAGGSLRLSCAASGITFGFNAMGWYRQAPGKERELVAAITWSVGRTYYADSVKGRFTISRDNAKNTVYLQMNSLKPEDTAVYYCAKEFVAGDDYFAYDYWGQGTQVTVSS | low polyreactivity |
| QVQLVESGGGLVQAGGSLRLSCAASGRIFTYNTMGWYRQAPGKERELVAAITSGGRTYYADSVKGRFTISRDNAKNTVYLQMNSLKPEDTAVYYCAAGRSRFVTRYDYWGQGTQVTVSS | high polyreactivity |
| QVQLVESGGGLVQAGGSLRLSCAASGSTFGDYDMGWYRQAPGKERELVAAITIGGITTYADSVKGRFTISRDNAKNTVYLQMNSLKPEDTAVYYCAAAERGDWDDYWGQGTQVTVSS | low polyreactivity |
| QVHLVESGGGLVQAGGSLRLSCAASGLTFLYNTMGWYRQAPGKEREFVAAITISGGTTYYADSVKGRFTISRDNAKNTVYLQMNSLKREDTAVYYCAADYNSTERGTNMDYWGQGTQVTVSS | low polyreactivity |
| QVQLVESGGGLVQAGGSLRLSCAASGRTFYANAMGWYRQAPGKERELVAAISTGGDGTYYADSVKGRFTISRDNAKKTVYLQMNSLKPEDTAVYYCAVRHRASGILYDYWGQGTQVTVSS | low polyreactivity |
| QLQLVESGGGLVQAGGSLRLSCAASGSTFATYAMGWYRQAPGKESELVAVITRGGSTYYADSVKGRFTISRDNAKNTVYLQMNSLKPEDTAVYYCAAKAYTYYARIGFDYWGQGTQVTVSS | high polyreactivity |
| QVQLVESCGGLVQAGGSLRLSCAASGRIFRDYAMGWYRQAPGKERELVATITRSGGRTYYADSVKGRFTISRDNAKNTVFLQMNSLKPEDTSVYYCAATYWTYPYHYQYKYDYWGQGTQVTVSS | high polyreactivity |
| QVQLVESGGGLVQAGGSLRLSCAASGSTFGYYAMGWYRQAPGKERELVAGITSGGSTYYADSVKGRFTISRDNAKNTVYLQMNSLKPEDTAVYYCAKPVRHYRGRYFKYDYWGQGTQVTVSS | high polyreactivity |
| QVQHEETGGGLVQAGGSLRLSCAASGSTYRKNSMGWYRPAPGKERAFVAAISRSGGSTYYADSVKGRFTISRDNAKNTVYLQMNSLKPEDTAVYYCAASYYQHQYSYELGDYWGQGTQVTVSS | low polyreactivity |
| QVQLVESGGGLVQAGVSLSLSCAGSGFIFFQYPMGWYRDAPGKDRELVAAISGSGVTTYYADSVKGRFTISRDYAKKTVYLQMNSLKPEDTAVYYCAALHYRIRRTGMDYWGQGTQVTVSS | low polyreactivity |
| QVQLVESGGGLVQAGGSLRLSCAASGSTVKYAMGWYRQAPGKDRELVASIRRSGGSTYYADSVKGRFTISRDNAMNTVYLQMNRLKPEDTAVYYCNARFPYNWRYDYWGQGTQVTVSS | high polyreactivity |
| QVQLVESGGGLVQAGGRLRLSCAASGSIFSIYPMGWYRQAPGKERDFVASITVTDGSTYYADSVKGRFTISRDNAKNTVYLQMNSLKPEDTADYYCNADGWYALYEWLAVSGYYWGQGTQVTVSS | low polyreactivity |
| QVQLVESGGCLVQAGGSLRLSCAASGSIGTYVMGWYRQAPGKQRELVAAITSNGGRKYYADSVKGRFTISRDNAKNTVYLQMNSLKPEDTAVYYCATVNYSPRYTMYYWGQGTQVTVSS | high polyreactivity |
| QVQLVESGGGLVQAGGSLRLSCAASGSIFVEYAMGWYRQAPGKERELVAGISSGGITSYADSVKGRFTISRDNAKNTVYLQMNSLKPEDTAVYYCATDPYKWFFSSYYLLQEVEYWGQGTQVTVSS | low polyreactivity |
| QVQLVESGGGLVQAGGSLRLSCAASGRTFYNNAMGWYRPAPGKERELVAAISQRTGRTYYADSVKGRFTISRDNAKNTVYLQMNSLKPEDTAVYYCNKVAYYSRRMDYWGQGTQVTVSS | high polyreactivity |
